The source of these data is patent US20240029824A1 (University of Washington, published 2024).

B3: DHT05 chain B (SEQ ID NO: 88) (designed binder)
chain: SEVEKRLLEIHRRVAESHRILVEVHEALIEALRGNSEEAKEKLKELVKELEKIIKEEEELLKELEKIVEEAS

Assay [1] concerns the target T1, DHT05 chain C (SEQ ID NO: 95).
T1 chain: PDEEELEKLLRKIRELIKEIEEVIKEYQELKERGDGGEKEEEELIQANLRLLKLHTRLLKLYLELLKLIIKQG
In words: SEC and SAXS; chains of one ABC heterotrimer.

The target of assay [2] is T2, DHT05_3arm_A62/B71/C62 chain B.
T2 chain: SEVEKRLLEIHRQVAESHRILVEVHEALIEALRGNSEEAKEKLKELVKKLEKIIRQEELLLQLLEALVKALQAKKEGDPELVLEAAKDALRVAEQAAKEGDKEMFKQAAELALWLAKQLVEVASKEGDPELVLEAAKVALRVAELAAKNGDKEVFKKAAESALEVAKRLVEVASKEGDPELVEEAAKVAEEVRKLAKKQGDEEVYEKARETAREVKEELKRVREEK
In words: SEC and SAXS; chains of one ABC heterotrimer.

Assay [3] addresses T3, DHT05_3arm_A62/B71/C62 chain C.
T3 chain: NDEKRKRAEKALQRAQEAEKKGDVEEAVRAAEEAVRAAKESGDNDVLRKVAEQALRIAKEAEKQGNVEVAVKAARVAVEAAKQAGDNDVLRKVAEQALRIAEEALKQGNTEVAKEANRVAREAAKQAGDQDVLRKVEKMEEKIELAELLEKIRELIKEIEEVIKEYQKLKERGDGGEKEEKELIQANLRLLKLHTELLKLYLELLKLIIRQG
Put plainly: SEC and SAXS; chains of one ABC heterotrimer.

For assay [4], the target named is T4, DHT05 chain C (SEQ ID NO: 89).
T4 chain: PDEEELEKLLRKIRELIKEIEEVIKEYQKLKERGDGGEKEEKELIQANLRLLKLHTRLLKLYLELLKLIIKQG
Put plainly: SEC and SAXS; chains of one ABC heterotrimer.

Assay [5] concerns the target T5, DHT05 chain C (SEQ ID NO: 98).
T5 chain: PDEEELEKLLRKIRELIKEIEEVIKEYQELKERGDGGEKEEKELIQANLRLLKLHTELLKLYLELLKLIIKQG
In words: co-expression, SEC, SAXS; chains of one ABC heterotrimer.

Assay [6] has as its target B3. In words: SEC and SAXS; chains of one ABC heterotrimer.
Another assay concerns the target T6, DHT01-4arm-01 chain C.
T6 construct: also called DHT01-4arm-02 chain C; C2-DHT01-01 chain B
T6 chain: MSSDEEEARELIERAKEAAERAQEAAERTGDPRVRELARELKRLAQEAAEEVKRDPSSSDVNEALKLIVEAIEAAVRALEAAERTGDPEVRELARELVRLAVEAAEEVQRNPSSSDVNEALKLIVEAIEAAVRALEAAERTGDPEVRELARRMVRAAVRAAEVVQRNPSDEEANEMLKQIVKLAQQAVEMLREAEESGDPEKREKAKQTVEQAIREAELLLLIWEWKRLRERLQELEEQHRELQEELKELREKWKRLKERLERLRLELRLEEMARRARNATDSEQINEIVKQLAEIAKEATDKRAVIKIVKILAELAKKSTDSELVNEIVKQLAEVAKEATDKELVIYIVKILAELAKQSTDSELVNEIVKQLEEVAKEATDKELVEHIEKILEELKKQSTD
In words: SEC and SDS-PAGE; chains of one ABC heterotrimer.

Assay [7] addresses T7, DHT03_3arm_A21/B21/C53 chain C.
T7 chain: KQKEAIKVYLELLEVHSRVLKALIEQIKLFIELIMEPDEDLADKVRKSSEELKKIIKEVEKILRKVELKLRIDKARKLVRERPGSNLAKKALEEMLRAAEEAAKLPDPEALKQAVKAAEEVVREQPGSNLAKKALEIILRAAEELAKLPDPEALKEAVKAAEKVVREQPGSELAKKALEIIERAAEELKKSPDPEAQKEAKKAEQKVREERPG
Put plainly: individually purified chains mixed 1:1:1, heat annealed, SEC. From the text:
(§1) To test this idea, an equimolar amount of individually purified A, B, and C of DHT03_2arm_A21/B21/C were mixed together and run through an annealing protocol (see Methods) to allow these interfaces to reassemble in the presence of all components. A monodisperse SEC peak was observed belonging to the ABC heterotrimer state as confirmed by overlap with its SEC co-expressed tricistronic version (FIG. 3d). To explore the use of this approach for building, four different repeat protein fusions to chain C were annealed in the same manner and all four 3-arm heterotrimers were successfully reconstituted. […] The successful reconstitution of these ABC assemblies, following the independent expression and purification of each chain and explicit mixing at a 1:1:1 ratio, enables their use in conjunction with other de novo proteins to mediate the specific assembly of multi-component assemblies. Independent expression also has considerable advantages over tricistronic expression from a gene synthesis perspective as DNA becomes much more difficult and expensive to synthesize with increasing construct size.
(§2) To test whether the DHT03 components could properly assemble in the presence of other helical hairpin containing chains, as would be the case for more complex assemblies, we chose DHD131, a designed helical hairpin unit heterodimer containing buried hydrogen bond networks¹². […] We evaluated simultaneous reconstitution of DHD131 and DHT03_3arm_A21/B21/C82, since the size difference between the two constructs (if correctly assembled) should be detected by SEC. We separately expressed and individually purified the two chains of the heterodimer and the three chains of the heterotrimer, mixed them at a 1:1:1:1:1 ratio, and carried out annealing and SEC as described above.

Assay [8] has as its target T8, DHT03_3arm_A21/B21/C62 chain C.
T8 chain: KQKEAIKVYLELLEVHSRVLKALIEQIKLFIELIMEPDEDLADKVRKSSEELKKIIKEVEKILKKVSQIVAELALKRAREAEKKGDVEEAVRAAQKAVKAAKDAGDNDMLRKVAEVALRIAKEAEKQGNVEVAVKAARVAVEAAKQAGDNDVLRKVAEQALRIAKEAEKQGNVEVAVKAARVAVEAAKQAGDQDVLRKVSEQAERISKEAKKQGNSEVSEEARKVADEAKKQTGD
The description is as above.
Excerpt: as §1, §2

Assay [9] concerns the target T9, DHT03_3arm_A21/B21/C59 chain C.
T9 chain: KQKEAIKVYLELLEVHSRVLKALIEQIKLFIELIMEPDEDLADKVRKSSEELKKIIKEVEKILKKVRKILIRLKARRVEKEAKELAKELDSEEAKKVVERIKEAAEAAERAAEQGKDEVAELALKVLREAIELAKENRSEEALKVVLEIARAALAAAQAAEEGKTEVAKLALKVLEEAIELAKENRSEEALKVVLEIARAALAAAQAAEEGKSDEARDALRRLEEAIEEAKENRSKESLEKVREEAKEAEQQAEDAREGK
The description is as above.
Excerpt: as §1, §2

The target of assay [10] is T10, DHT03_3arm_A21/B21/C82 chain C.
T10 construct: also called chain C DHR82 fusion; chain C of C3-DHT03-01-DHR82 and C4-DHT03-01-DHR82
T10 chain: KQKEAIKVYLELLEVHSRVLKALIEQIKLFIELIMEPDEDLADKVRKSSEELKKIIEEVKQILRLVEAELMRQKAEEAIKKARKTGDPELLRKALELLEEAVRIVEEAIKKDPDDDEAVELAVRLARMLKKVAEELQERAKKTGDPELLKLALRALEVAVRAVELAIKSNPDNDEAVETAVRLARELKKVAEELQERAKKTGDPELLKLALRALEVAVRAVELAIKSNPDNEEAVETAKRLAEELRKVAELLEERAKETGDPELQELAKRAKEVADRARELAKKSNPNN
Described as above.
Excerpt: as §1, §2

In another assay the target is T11, DHT01 chain B.
T11 chain: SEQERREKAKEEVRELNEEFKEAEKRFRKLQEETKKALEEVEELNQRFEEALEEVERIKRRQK
Put plainly: co-expression, IMAC and Strep-Tactin pull-down, SEC, native MS; chains of one ABC heterotrimer. From the text: (§3) We obtained genes encoding 20 coiled coil designed heterotrimers (DHTs) in a tricistronic E. coli expression vector with one chain having a 6×His-tag and a second chain having Strep-tag II, expressed the proteins, and purified by immobilized metal affinity chromatography (IMAC) and Strep-Tactin pull-down. All designs were soluble and for 6 designs, all three components were observed by liquid chromatography-mass spectrometry (LC-MS) after both pull-down approaches. Of these, 5 eluted as monodisperse peaks by SEC, but only 1 design (DHT01) was an exclusive ABC heterotrimer by native mass spectrometry (nMS) and had good agreement with the design model via small angle X-ray scattering (SAXS) (FIG. 2d, Table 7).
(§4) Samples were analyzed by online buffer exchange native mass spectrometry (nMS) to evaluate sample purity and accurately determine oligomeric states⁴². Multiple instruments were used as the analyses were carried out over the duration of the protein design process. The mass spectrometers used for detection were a Q Exactive™ UHMR modified with a surface-induced dissociation device and an Exactive™ Plus EMR modified with a selection quadrupole and a surface-induced dissociation device (Thermo Fisher Scientific)⁴³. The liquid chromatography systems used for the buffer exchange include a Vanquish™ Duo UHPLC and a Dionex™ Ultimate 3000 HPLC (Thermo Fisher Scientific). A heated electrospray ionization source (HESI-II, Thermo Fisher Scientific) with a spray voltage of ˜4 kV was used for ionization. Protein samples stored in Tris buffer were injected (0.1-2 ug) onto the LC system and exchanged at a flow rate of 100-200 uL*min⁻¹ into 200 mM ammonium acetate (mobile phase) prior to ionization. Buffer exchange columns used include self-packed columns with P6 polyacrylamide gel (Bio-Rad Laboratories) and prototype buffer exchange columns provided by Thermo Fisher Scientific (Sunnyvale, CA). Instrument parameters were optimized to allow for ion transmission while minimizing unintentional ion activation. […]

The next assay deals with T12, DHT01 chain C.
T12 chain: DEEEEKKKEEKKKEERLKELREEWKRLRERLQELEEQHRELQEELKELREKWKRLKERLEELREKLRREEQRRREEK
Described as above.
Excerpt: as §3, §4

B1: DHT05_2arm_A62/B14/C chain B (designed binder)
chain: SEVEKRLLEIHREVAESHRILVEVHEALIEALRGNSEEAKEKLKELVKKLEKIIKEEEELLKKLEKIVVQALAKAAKQATDSRQVNEIVKQLAEIAKEATDKRLVIEIVKILAELAKQSTDSELVNEIVKQLAEVAKEATDKELVIYIVKILAELAKQSTDSELVNEIVKQLEEVAKEATDKELVEHIEKILEELKKQSTD
With B1, the binding result in [1] is on record as “binds”.

B2: DHT05_3arm_A62/B71/C62 chain A (designed binder)
chain: NDEKRKRAEKALQRAQEAEKKGDVEEAVRAAQEAVRAAKESGDNDVLRKVAEQALRIAEEAEKQGNVEVAVKAARVAVEAAKQAGDNDVLRKVAEQALRIAEEAEKQGNVKVAADAVEVAVEAATQAGDQDVLRKASEQAKKVAKEAKKKGDHKVAVKATTLAVKAEFAAIQEEIKKLEEEAKKAEKGNGKEEIKELLLELSELLARSLQLLAQQIEAIAKLIRG
For B2, the binding result in assay [2] and in assay [3] was “binds” throughout.

As to B3, the binding result in [4] is recorded as “binds”.

B4: DHT05_2arm_A62/B14(2)-LHD101B14/C chain B (designed binder)
chain: SETEKRLLEIHRRVAESHRILVEVHEALIEALRGNSEEAKEKLKELVKKLEKIIREEEKLTVELAAKVAKSADDSEKVNEIVKTLAEIAKEATDKEQVIRIVKILAELAKQSTDSELVNEIVKQLAEVAKEATDKELVIYIVDILLKLAEQADDDELVEEIRKQLEEVAKEATDKELVEIIKAVIVLLVIISVVARMGVTMEIHKSGREVKVVIKGLHESQQEQLLEAVLRAAEEAGVRVRIRFKGDTVTIVVRG
B4: the binding result in [5] is reported as “binds”.

B5: DHT05 chain A (designed binder)
chain: PEEKKEIKRTTEEVKEEFRKIQEEIKKLEEEAKKAEKGNGKEEIKELLLRLSELLARSLQLLAQQIEAIAKLIRG
For the molecule B5, in assay [6], the binding result was “binds”.

B6: DHT01-4arm-02 chain B (designed binder)
chain: MSSDEEEARELIERAKEAAERAQEAAERTGDPRVRELARELKRLAQEAAEEVKRDPSSSDVNEALKLIVEAIEAAVRALEAAERTGDPEVRELARELVRLAVEAAEEVQRNPSSSDVNRALKLIVRAIEAAVQLLEHAEKSGDPEVRELARELVRRLVEAAEEVQRNPSDEQKNTQLRRLIAKAEVWLLNEEFKEAEKRFRKLQEETKKALEEVEELNQRFEEALEEVERIKRRQK
notes: Strep-tag II was added to the N-terminus of chain B of DHT01 arms; also called C2-DHT01-04 chain B
Turning to B6, the binding result in the assay with DHT01-4arm-01 chain C is “binds”.

B7: DHT03_3arm chain B (B21, SEQ ID NO: 73) (designed binder)
chain: SEKEKVEELAQRIREQLPDTELAREAQELADEARKSDDSEALKVVYLALRIVQQLPDTELAREALELAKEAVKSTDSEQLEVVRLALEIVQLAPDTRLARAALKLAKEAVKSTDQEELKKVKAILRVASEVLKLEEEAKKSQEEVERLKQEVEKASKAGLDHEGDSRIFKKIHDVVTKQIKVILRLIAVYAELVAIIG
notes: separately expressed with an N- or C-terminal 6xHis-tag
As to B7, the binding result in assay [7], in assay [8], in assay [9] and in [10] was “binds” in each case.

B8: DHT01 chain A (designed binder)
chain: DEEEKLRESLEEQKKRVKEIEREHEEIREALKRLQESVKRQEEALRQLG
notes: one chain of the co-expressed design carried a 6xHis-tag and a second a Strep-tag II
As to B8, the binding result with DHT01 chain B and in the assay with DHT01 chain C was “binds” throughout.
